Assay [1] deals with T1, linear diubiquitin (Boston Biochem) (human, UniProt P0CG48 1-152).
T1 construct: Bought product
The assay is described as follows: phage IC50 competition ELISA: soluble linear diUb against plate-coated linear diUb for the 1D8.3C2 Fab-phage.

In assay [2] the target is T1, linear diubiquitin (Boston Biochem). The assay is described as follows: western blot, 1 ug/mL IgG, LI-COR Odyssey quantification; Ub2 bands seen at 37 (faint), 111, 333 and 1000 ng. (In general: A western blot detects proteins with antibodies after separation by electrophoresis.)
For assay [3] the target is unchanged. Description: western blot, 1 ug/mL IgG, LI-COR Odyssey quantification; Ub2 bands seen at 111 (faint), 333 and 1000 ng.
Assay [4] concerns the target T2, K63-linked diubiquitin (Boston Biochem) (human, UniProt P0CG48 1-76, isopeptide bond between the C-terminus of one ubiquitin and Lys63 of the other).
T2 construct: Bought product; also called K63 diUb
The assay is described as follows: western blot, 1 ug/mL IgG, LI-COR Odyssey. How it is done: (§1) Gels were transferred at 30 V constant for 1 hour by wet transfer in 10% methanol and 1× NuPAGE transfer buffer (Invitrogen) to 0.2 μm nitrocellulose (Invitrogen). Non-specific binding sites on the membranes were blocked by incubation in 5% milk in PBST for 1 hour at 25° C. with shaking. […] The membranes were washed three times in PBST with shaking. The IgGs were detected by incubating the membrane in a 1:10,000 dilution of a goat anti-human Fc fragment-specific IR Dye 800CW-conjugated secondary antibody (Rockland Immunochemicals) in 5% milk in PBST for 30 minutes at 25° C. with shaking. The membranes were then washed three times in PBST followed by one wash in PBS. The secondary antibody was detected and quantified using the L1-COR Odyssey infrared imaging system (L1-COR Biosciences).

The target in assay [5] is T1, linear diubiquitin (Boston Biochem). The assay is described as follows: western blot, 1 ug/mL IgG, LI-COR Odyssey quantification; Ub2 bands seen at 333 (faint) and 1000 ng. The procedure: as §1
In assay [6] the target is T2, K63-linked diubiquitin (Boston Biochem). Description: western blot, 1 ug/mL IgG, LI-COR Odyssey. The source holds these as a separate data set.
The target in assay [7] is T3, K48-linked diubiquitin (Boston Biochem) (human, UniProt P0CG48 1-76, isopeptide bond between the C-terminus of one ubiquitin and Lys48 of the other).
T3 construct: Bought product; also called K48 diUb
Description: phage specificity ELISA, 1 ug/mL coated antigen, anti-M13-HRP. A general note: An ELISA detects its analyte on a solid surface through an enzyme-linked reagent.

Assay [8] addresses T4, monoubiquitin (Boston Biochem) (human, UniProt P0CG48 1-76).
T4 construct: Bought product
Described as above.

Assay [9] deals with T5, K11-linked diubiquitin (Genentech) (human, UniProt P0CG48 1-76, isopeptide bond between the C-terminus of one ubiquitin and Lys11 of the other).
T5 construct: also called K11 diUb
Described as above.

In assay [10] the target is T1, linear diubiquitin (Boston Biochem). The assay is described as follows: phage IC50 competition ELISA with soluble linear diubiquitin. The procedure:
An initial titer ELISA was done to determine the amount of phage at which a signal of OD₄₅₀=0.5 would be achieved. […] The coated plates were blocked with 200 μL/well of 2.5% milk in PBST for one hour at 25° C. with shaking. Twelve two-fold serial dilutions of the phage were made in 2.5% milk in PBST from OD₂₆₈=4.0 to OD₂₆₈=0.002. After one hour, the blocking buffer was dumped off of the plate and 100 μL/well of each phage dilution was added and incubated at 25° C. for 15 minutes with shaking. The plate was then washed six times with PBST using a plate washer. A 1:5000 dilution of an anti-M13 phage-HRP-conjugated secondary antibody (GE Healthcare) in PBST was used for detection of phage binding. 100 μL/well of the secondary dilution was added and the plate was incubated at 25° C. for 30 minutes with shaking. The plate was then washed 12 times with PBST using a plate washer and twice with PBS manually. Bound secondary antibody was detected using a TMB substrate (KPL) followed by quenching with an equal volume of 1 M phosphoric acid.

Assay [11] shares this target. Description: western blot, 1 ug/mL IgG, LI-COR Odyssey quantification; Ub2 bands seen at 111 (faint), 333 and 1000 ng. How it is done: as §1
This is another data set of the same source.

As a reminder, the IC50 is the midpoint of a concentration-inhibition curve. Read a high IC50 as weaker potency.

Positions count from the first letter of the chain named. Names and notes keep the numbering of the source. Read-outs that look alike come from different tables or passages of the source.

B1: 1D8.3C2, Fab displayed on phage (Fab, V domains shown)
VH: EVQLVESGGGLVQPGGSLRLSCAASGFTFTDYDIHWVRQAPGKGLEWVAWISPYSGYTDYADSVKGRFTISADTSKNTAYLQMNSLRAEDTAVYYCAREAGSRLLSVMDYWGQGTLVTVSS
VL: DIQMTQSPSSLSASVGDRVTITCRASQGVDNSVAWYQQKPGKAPKLLIYSASFLYSGVPSRFSGSGSGTDFTLTISSLQPEDFATYYCQQSYTTPPTFGQGTKVEIK
notes: Fab on M13 phage
With B1, the binding result in assay [1] is reported as “binds”.

B2: 1F11/3F5/Y102L IgG (antibody, V domains shown)
VH: EVQLVESGGGLVQPGGSLRLSCAASGFTFSNTYISWVRQAPGKGLEWVASITPSSGQTDYADSVKGRFTISADTSKNTAYLQMNSLRAEDTAVYYCARTWLLRWVMDLWGQGTLVTVSS
VL: B1 VL with G28D, D30S, N31T, S32A, S52K
notes: also called triple mutant; hybrid anti-linear polyubiquitin antibody
In the case of B2, the “signal of the Ub2 band at 1000 ng linear diUb (number under the arrow)” value (shortened to “signal of the Ub2 band”) in assay [2] came out at 15.5.

B3: 1F11/Y102L IgG (antibody, V domains shown)
VH: B2 VH with Q57S
VL: B1 VL with G28D, D30S, N31T, S32A, S52K
notes: human kappa IgG1
Regarding B3, the “signal of the Ub2 band” value in [3] came to 5.3.

B4: 2C11 IgG (antibody, name in Kabat numbering, V domains shown)
VH: B2 VH with Q57S, L108Y
VL: B1 VL with G28D, D30S, N31T, S32A, T94Q
Regarding B4, the binding result in assay [4] was “no binding (tested: 1000 ng per lane)”. For the same molecule, the “signal of the Ub2 band” value in [5] was determined as 10.8.

B5: 1F11/2C11/3F5 triple mutant IgG (antibody, name in Kabat numbering, V domains shown)
VH: B2 VH with L108Y
VL: B1 VL with G28D, D30S, N31T, S32A, S52K, T94Q
notes: human kappa IgG1
Take B5: the binding result in [6] is given as “no binding (tested: 1000 ng per lane)”.

B6: 2H5 IgG (antibody, name in Kabat numbering, V domains shown)
VH: B2 VH with Q57S, L108Y
VL: B1 VL with G28D, D30S, N31T, S32A, T94N
Turning to B6, the binding result in assay [4] is on record as “no binding (tested: 1000 ng per lane)”. Also, in [5], the “signal of the Ub2 band” value is 10.4.

B7: Y102L IgG (antibody, V domains shown)
VH: B2 VH with Q57S
VL: B1 VL with G28D, D30S, N31T, S32A
notes: human kappa IgG1; also called Y012L
Take B7: in assay [3], the “signal of the Ub2 band” value came to 5.4.

B8: 2C11/3F5 double mutant, Fab displayed on phage (Fab, name in Kabat numbering, V domains shown)
VH: B2 VH with L108Y
VL: B1 VL with G28D, D30S, N31T, S32A, T94Q
For the molecule B8, the binding result in [7], in [8] and in assay [9] was “no binding (tested: phage OD268 1)” each time. The molecule also yielded an IC50 in [10] of 10 nM.

B9: 3F5 IgG (antibody, V domains shown)
VH: B2 VH with L108Y
VL: B1 VL with G28D, D30S, N31T, S32A
With B9, the binding result in assay [4] is “no binding (tested: 1000 ng per lane)”. In addition, the “signal of the Ub2 band” value in assay [11] was found to be 16.4.

B10: 2H5/3F5 double mutant, Fab displayed on phage (Fab, name in Kabat numbering, V domains shown)
VH: B2 VH with L108Y
VL: B1 VL with G28D, D30S, N31T, S32A, T94N
Consider B10, for which the binding result in [7], in assay [8] and in assay [9] was “no binding (tested: phage OD268 1)” in each case. Further, the IC50 in assay [10] is 8 nM.

B11: 1F11/Y102L T110A (antibody, V domains shown)
VH: B2 VH with Q57S, T116A
VL: B1 VL with G28D, D30S, N31T, S32A, S52K
notes: also called 1F11/Y102L T110A IgG
Take B11: the “signal of the Ub2 band” value in [3] was 8.4.

B12: 1F11/3F5/Y102L T110A (antibody, V domains shown)
VH: B2 VH with T116A
VL: B1 VL with G28D, D30S, N31T, S32A, S52K
notes: also called 1F11/3F5/Y102L T110A IgG
B12: the “signal of the Ub2 band” value in [2] was 5.5.

B13: 2C11/3F5 IgG (antibody, name in Kabat numbering, V domains shown)
VH: B2 VH with L108Y
VL: B1 VL with G28D, D30S, N31T, S32A, T94Q
Regarding B13, the binding result in assay [6] is “no binding (tested: 1000 ng per lane)”. The “signal of the Ub2 band” value in assay [11] amounted to 13.1.

B14: 1F11/2H5/3F5 triple mutant IgG (antibody, name in Kabat numbering, V domains shown)
VH: B2 VH with L108Y
VL: B1 VL with G28D, D30S, N31T, S32A, S52K, T94N
notes: human kappa IgG1
On to B14, for which the binding result in assay [6] was “no binding (tested: 1000 ng per lane)”.

B15: 1F11 IgG (antibody, V domains shown)
VH: B2 VH with Q57S, L108Y
VL: B1 VL with G28D, D30S, N31T, S32A, S52K
For the molecule B15, the “signal of the Ub2 band” value in assay [5] worked out at 13.1.

B16: 1F11/3F5 IgG (antibody, V domains shown)
VH: B2 VH with L108Y
VL: B1 VL with G28D, D30S, N31T, S32A, S52K
notes: also called double mutant 1F11/3F5
For B16, the binding result in assay [4] was “no binding (tested: 1000 ng per lane)”.

B17: 2H5/3F5 IgG (antibody, name in Kabat numbering, V domains shown)
VH: B2 VH with L108Y
VL: B1 VL with G28D, D30S, N31T, S32A, T94N
B17: the binding result in [6] is listed as “no binding (tested: 1000 ng per lane)”. In addition, in assay [11], the “signal of the Ub2 band” value was 16.7.

B18: 3F5/Y102L IgG (antibody, V domains shown)
VH: B2 VH
VL: B1 VL with G28D, D30S, N31T, S32A
notes: Human kappa IgG1
For B18, in [2], the “signal of the Ub2 band” value is 18.

These data come from patent publication US20130058955A1 (Genentech, published 2013).
